Here are results for 1 molecule from patent publication US20060088847A1 (TRUSTEES OF COLUMBIA UNIVERSITY IN THE CITY OF NEW YORK, published 2006).

The experiment deals with in vitro translated 35S-labeled ARF-BP1 (1015-4374) (human, UniProt Q7Z6Z7 1015-4374, 35S-labeled (in vitro translation)). Put plainly: GST pull-down with 35S-labeled in vitro translated protein.

B1: GST-C-ARF, the C terminus of ARF (65-132) (other, UniProt Q8N726 65-132, looked up)
chain: GHDDGQRPSGGAAAAPRRGAQLRRPRHSHPTRARRCPGGLPGHAGGAAPGRGAAGRARCLGPSARGPG
notes: range 65-132; also called CARF-(65-132); not shown: glutathione S-transferase (GST) tag of the pGEX vector
For the molecule B1, the binding result is “no binding”.
